Assay results as given in patent US20260137822A1 (ABDERA THERAPEUTICS, published 2026).

T1: mouse DLL3 (recombinant antigen) (mouse, UniProt O88516 25-477, limits assumed)
T1 construct: also called mDLL3
T1 sequence (looked up): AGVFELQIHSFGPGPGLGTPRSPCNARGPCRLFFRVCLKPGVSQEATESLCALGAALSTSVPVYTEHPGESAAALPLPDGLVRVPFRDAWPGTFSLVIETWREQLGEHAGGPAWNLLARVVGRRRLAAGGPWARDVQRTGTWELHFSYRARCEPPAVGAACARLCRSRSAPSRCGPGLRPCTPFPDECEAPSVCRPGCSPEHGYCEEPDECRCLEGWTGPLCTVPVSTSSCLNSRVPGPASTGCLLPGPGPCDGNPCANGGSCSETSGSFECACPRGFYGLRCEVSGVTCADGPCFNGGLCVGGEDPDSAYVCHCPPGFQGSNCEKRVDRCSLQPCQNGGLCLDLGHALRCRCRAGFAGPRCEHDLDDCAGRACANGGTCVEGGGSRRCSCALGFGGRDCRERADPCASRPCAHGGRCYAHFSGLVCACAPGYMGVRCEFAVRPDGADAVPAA

T2: human DLL3 (recombinant antigen) (human, UniProt Q9NYJ7 27-492, limits assumed)
T2 construct: also called hDLL3
T2 sequence (looked up): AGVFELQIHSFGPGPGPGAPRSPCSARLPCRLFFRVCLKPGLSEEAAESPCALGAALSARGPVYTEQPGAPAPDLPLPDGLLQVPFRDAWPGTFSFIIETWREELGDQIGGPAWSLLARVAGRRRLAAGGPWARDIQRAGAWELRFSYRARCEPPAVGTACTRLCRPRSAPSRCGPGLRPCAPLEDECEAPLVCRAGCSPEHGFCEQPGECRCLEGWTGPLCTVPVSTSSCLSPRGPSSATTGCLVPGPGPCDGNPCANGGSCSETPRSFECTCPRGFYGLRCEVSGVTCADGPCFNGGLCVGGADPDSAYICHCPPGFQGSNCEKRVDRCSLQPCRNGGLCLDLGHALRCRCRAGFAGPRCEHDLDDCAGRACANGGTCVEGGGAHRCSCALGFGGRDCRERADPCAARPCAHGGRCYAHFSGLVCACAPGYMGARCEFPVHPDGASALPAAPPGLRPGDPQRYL

T3: DLL3 on cells (SHP-77, NCI-H82, HEK-DLL3) (UniProt Q9NYJ7 27-618)
T3 construct: whole, on cells; also called DLL3-positive cell lines
T3 sequence (looked up): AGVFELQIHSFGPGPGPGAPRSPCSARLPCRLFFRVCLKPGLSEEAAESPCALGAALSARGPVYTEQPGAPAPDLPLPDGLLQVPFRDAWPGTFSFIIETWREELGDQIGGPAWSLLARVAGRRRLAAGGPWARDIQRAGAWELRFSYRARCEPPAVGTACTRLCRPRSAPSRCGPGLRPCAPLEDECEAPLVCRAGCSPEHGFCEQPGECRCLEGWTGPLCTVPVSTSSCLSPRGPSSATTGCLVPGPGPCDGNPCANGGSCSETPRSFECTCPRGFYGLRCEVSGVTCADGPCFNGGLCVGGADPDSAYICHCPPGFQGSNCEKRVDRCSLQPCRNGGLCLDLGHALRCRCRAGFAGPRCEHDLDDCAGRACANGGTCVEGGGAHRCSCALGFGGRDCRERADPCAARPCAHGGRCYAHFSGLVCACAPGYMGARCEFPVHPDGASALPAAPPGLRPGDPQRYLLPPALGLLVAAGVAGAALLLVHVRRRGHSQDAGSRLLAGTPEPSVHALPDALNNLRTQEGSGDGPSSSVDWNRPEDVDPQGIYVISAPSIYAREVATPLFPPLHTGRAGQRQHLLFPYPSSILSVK

T4: human DLL3.FLAG (Adipogen #AG-40B-0151, amino acid 27-466) (human, UniProt Q9NYJ7 27-466)
T4 construct: range 27-466; Carries a FLAG tag
T4 sequence (looked up): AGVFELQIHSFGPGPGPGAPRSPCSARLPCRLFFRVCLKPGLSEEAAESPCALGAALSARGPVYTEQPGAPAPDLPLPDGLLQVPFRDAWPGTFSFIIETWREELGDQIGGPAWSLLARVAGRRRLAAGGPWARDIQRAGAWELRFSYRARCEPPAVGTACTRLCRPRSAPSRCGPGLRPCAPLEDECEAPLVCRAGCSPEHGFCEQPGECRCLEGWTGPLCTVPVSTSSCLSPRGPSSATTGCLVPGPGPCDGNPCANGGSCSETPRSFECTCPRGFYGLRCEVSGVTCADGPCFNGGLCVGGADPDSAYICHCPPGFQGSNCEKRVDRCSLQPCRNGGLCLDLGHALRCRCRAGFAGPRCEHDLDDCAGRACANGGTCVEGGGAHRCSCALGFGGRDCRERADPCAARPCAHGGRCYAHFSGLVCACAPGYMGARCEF


Columns and labels:
[1] = target: T5, human FOLR1 (recombinant antigen) (human, UniProt P15328 25-234, limits assumed); assay: ELISA on hFOLR1
T5 construct: also called hFOLR1

[2] = target: T1, mouse DLL3 (recombinant antigen); assay: BLI (Octet), VHH-Fc captured on AHC biosensor, mDLL3 as analyte
Protocol: (§1) Antibody affinity was assessed using Octet Red96e (ForteBio). […] Each cycle was performed with orbital shake speed of 1,000 rpm. […] A set of AHC biosensors was dipped in kinetics buffer for baseline step of 60s. Anti-Target VHH-Fc (5 μg/mL, in kinetics buffer) was loaded onto the biosensors for 240 s followed by a second baseline step of 30 s. The IgG captured sensors were dipped into buffer for single reference subtraction to compensate natural dissociation of capture IgG. Each biosensor was then dipped into corresponding concentration of target protein (human, murine or cynomolgus monomeric protein) for 600 s, followed by 1800 s of dissociation time in kinetics buffer, or conditions as optimized. A new set of AHC biosensors was used for every VHH-Fc. The data was analysed by global fit 1:1 model for the association and dissociation step, (Octet software version v11.0).
(§2) AHC Octet biosensors were used to capture tetramer/VHH-Fc and then dipped into antigen.

[3] = target: T6, FOLR1 on cells (OVCAR3, OV-90) (UniProt P15328 25-234); assay: flow cytometry on FOLR1 expressing OV-90 cells, Geomeans RL1-H against Conc (nM) [top panel]
T6 construct: whole, on cells; also called FOLR1-positive OVCAR3 cells; FOLR1 expressing OV-90 cells

[4] = target: T2, human DLL3 (recombinant antigen); assay: BLI (Octet), VHH-Fc captured on AHC biosensor, hDLL3 as analyte
Protocol: as §1, §2

[5] = target: T7, mouse FOLR1 (recombinant antigen) (mouse, UniProt P35846 25-232, limits assumed); assay: ELISA on mFOLR1
T7 construct: also called mFOLR1

[6] = target: T3, DLL3 on cells (SHP-77, NCI-H82, …); assay: flow cytometry on SHP-77 cells (DLL3-positive), MFI against nM antibody
Protocol: (§3) VHH-Fcs were screened for binding to a range of target-positive cancer cell lines by flow cytometry. All cell lines were sourced from ATCC unless otherwise noted, and cultured according to manufacturers instructions and recommended media. […] HER2-negative cell lines tested included SHP-77. […] Primary antibodies diluted in same manner as for ELISA were added to cells and incubated for 1 hour on ice. […] Following two further washes, cells were resuspended, and analyzed by flow cytometry on the iQue screener platform (Intellicyt), and data was processed with Forecyt, according to standard protocols.

[7] = target: T3, DLL3 on cells (SHP-77, NCI-H82, …); assay: flow cytometry, SHP-77 cells
Protocol: as §3
(§4) Binding of VHH-Fc conjugates was therefore tested, similar to as described above.

[8] = target: T3, DLL3 on cells (SHP-77, NCI-H82, …); assay: flow cytometry, HEK-DLL3 cells
Protocol: as §3, §4

[9] = target: T4, human DLL3.FLAG (Adipogen #AG-40B-0151, …); assay: ELISA on coated hDLL3-Flag, A450nm against nM antibody
Protocol: The VHH-Fcs were assessed by ELISA for binding to Target soluble protein—human, murine and cynomolgous orthologs as appropriate, according to standard protocols. Antigens were sourced commercially or produced by cloning known antigen sequences (Uniprot) into mammalian expression vectors with a HIS, FLAG or equivalent tag for purification and detection purposes. A commercially available control anti-target IgG was included. […] The color development was stopped with 1 M HCl (50 l). Optical density (OD) was measured at 450 nm using Spectromax plate reader and data were processed using SoftMaxPro.

T6 sequence (P15328 25-234): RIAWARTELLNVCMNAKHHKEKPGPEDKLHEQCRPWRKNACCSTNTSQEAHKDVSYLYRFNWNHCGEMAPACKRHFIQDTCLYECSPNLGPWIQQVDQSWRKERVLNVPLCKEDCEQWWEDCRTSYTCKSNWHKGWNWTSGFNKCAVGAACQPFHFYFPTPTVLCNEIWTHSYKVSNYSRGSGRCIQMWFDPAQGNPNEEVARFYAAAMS
T5 sequence (P15328 25-234 limits assumed): as the sequence (P15328 25-234) above
T7 sequence (P35846 25-232 limits assumed): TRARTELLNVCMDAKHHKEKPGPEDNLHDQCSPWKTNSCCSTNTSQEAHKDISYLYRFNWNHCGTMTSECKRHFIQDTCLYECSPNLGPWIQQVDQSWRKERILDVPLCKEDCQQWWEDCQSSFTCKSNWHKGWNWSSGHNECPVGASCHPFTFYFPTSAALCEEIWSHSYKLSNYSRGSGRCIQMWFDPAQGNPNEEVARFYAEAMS

| binding result [1] | koff [2] | kon [2] | binding result [3] | Kd [4] | koff [4] | kon [4] | binding result [5] | EC50 (read off the curve) [6] | EC50 [7] | EC50 [8] | EC50 (read off the curve) [9] | Binder |
| --- | --- | --- | --- | --- | --- | --- | --- | --- | --- | --- | --- | --- |
| no binding | 0.000267 s⁻¹ | 215000 M⁻¹ s⁻¹ | no binding (tested: 200 nM) | 2.29 nM | 0.000379 s⁻¹ | 166000 M⁻¹ s⁻¹ | no binding | – | – | – | – | DLL3 VHH (VHH-Fc control) (Fc fusion, not shown: a dimerising Fc or GST) EVQLVESGGGEVQPGGSLRLSCAASGSIFSINAMGWYRQAPGKQRELVAGFTGDTNTIYAESVKGRFTISRDNAKNTVYLQMSSLRAEDTAVYYCAADVQLFSRDYEFYWGQGTLVTVKP |
| – | – | – | – | – | – | – | – | ~0.1 nM | 0.11 nM | 0.06 nM | ~0.09 nM | Rovalpituzumab (Creative Biolabs #TAB-216CL) (antibody, V domains shown) VH: QVQLVQSGAEVKKPGASVKVSCKASGYTFTNYGMNWVRQAPGQGLEWMGWINTYTGEPTYADDFKGRVTMTTDTSTSTAYMELRSLRSDDTAVYYCARIGDSSPSDYWGQGTLVTVSS VL: EIVMTQSPATLSVSPGERATLSCKASQSVSNDVVWYQQKPGQAPRLLIYYASNRYTGIPARFSGSGSGTEFTLTISSLQSEDFAVYYCQQDYTSPWTFGQGTKLEIK |
